# Where no end group is shown, it is not given here.
# B1: PapMVCP-STASYTR (VLPs of PapMV coat protein fused to the HCV core affinity peptide STASYTR and a histidine tag) (designed binder)
# chain: MASTPNIAFPAITQEQMSSIKVDPTSNLLPSQEQLKSVSTLMVAAKVPAASVTTVALELVNFCYDNGSSAYTTVTGPSSIPEISLAQLASIVKASGTSLRKFCRYFAPIIWNLRTDKMAPANWEASGYKPSAKFAAFDFFDGVENPAAMQPPSGLTRSPTQEERIANATNKQVHLFQAAAQDNNFASNSAFITKGQISGSTPTIQFLPPPETSSTASYTRTRHHHHHH
# notes: also called PapSTA; PapMV-STASYTR
# Tests used:
# [1] = biological target: T1, OmpF porin purified from Salmonella typhi (Salmonella typhi, UniProt Q56113 23-363); assay: phage display panning (Ph.D-7 library) on purified OmpF coated on an ELISA plate, 3 rounds
# T1 construct: also called S. typhi OmpF; OmpF antigen
# T1 sequence: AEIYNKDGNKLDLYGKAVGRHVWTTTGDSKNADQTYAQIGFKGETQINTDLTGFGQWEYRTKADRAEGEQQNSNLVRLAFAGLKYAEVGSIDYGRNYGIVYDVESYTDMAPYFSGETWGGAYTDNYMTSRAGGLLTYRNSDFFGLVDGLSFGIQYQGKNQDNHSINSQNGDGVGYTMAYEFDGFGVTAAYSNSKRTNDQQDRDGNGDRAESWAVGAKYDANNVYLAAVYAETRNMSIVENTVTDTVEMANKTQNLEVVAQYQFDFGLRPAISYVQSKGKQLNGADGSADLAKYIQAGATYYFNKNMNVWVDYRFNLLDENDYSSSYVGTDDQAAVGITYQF
# [2] = biological target: T2, free (non-NLP) HCV core protein (1-170) (hepatitis C virus (plasmid pCV-H77c), UniProt P27958 1-170); assay: phage display panning (Ph.D.-7 library) on HCV-C170 adsorbed to a plate, 4 rounds, elution with target protein
# T2 construct: range 1-170; also called HCV-C170; free HCV-C170; not shown: His6-tag fused at the C-terminus
# T2 sequence: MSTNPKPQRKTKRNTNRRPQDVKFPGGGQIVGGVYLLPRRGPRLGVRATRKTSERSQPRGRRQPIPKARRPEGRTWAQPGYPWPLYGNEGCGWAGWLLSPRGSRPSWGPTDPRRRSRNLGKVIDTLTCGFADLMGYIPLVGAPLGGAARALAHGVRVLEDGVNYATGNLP
# [3] = biological target: T3, HCV core protein (1-170) NLPs (hepatitis C virus (plasmid pCV-H77c), UniProt P27958 1-170); assay: ELISA-type binding assay, HCV-C170 NLP coated at 1 µg/ml, 2-fold serial dilution of PapMVCP-STASYTR, detected with rabbit anti-PapMV CP polyclonal
# T3 construct: range 1-170; also called HCV-C170 NLP; not shown: His6-tag fused at the C-terminus
# T3 sequence: T2 sequence
# [4] = biological target: T2, free (non-NLP) HCV core protein (1-170); assay: ELISA-type binding assay, free (non-NLP) HCV-C170 coated at 1 µg/ml, 2-fold serial dilution of PapMVCP-STASYTR, detected with rabbit anti-PapMV CP polyclonal
Binder,binding result [2],also measured
FHENWPS (not fully specified) [OmpF affinity peptide FHENWPS],–,binding result [1]: binds
FHEFWPT (not fully specified) [OmpF affinity peptide FHEFWPT],–,binding result [1]: binds
STASYTR (not fully specified) [HCV core affinity peptide STASYTR],binds,–
NASSLRS (not fully specified) [HCV core affinity peptide NASSLRS],binds,–
HSPKNLH (not fully specified) [HCV core affinity peptide HSPKNLH],binds,–
NTPQGMT (not fully specified) [HCV core affinity peptide NTPQGMT],binds,–
GPSTPIR (not fully specified) [HCV core affinity peptide GPSTPIR],binds,–
GVQIMGR (not fully specified) [HCV core affinity peptide GVQIMGR],binds,–
SIQYTGV (not fully specified) [HCV core affinity peptide SIQYTGV],binds,–
B1,–,binding result [3]: binds; binding result [4]: binds

# Source: patent publication US20100047264A1 (published 2010)
